Results: PMC7765622, “The Cardioprotective PKA-Mediated Hsp20 Phosphorylation Modulates Protein Associations Regulating Cytoskeletal Dynamics” (International Journal of Molecular Sciences, 2020)
Numbering of substitutions follows the chain as printed. In names and notes the source's numbering stands.

T1: MBP-14-3-3 (amino acids 1-247), full length 14-3-3 gamma (human, UniProt P61981 1-247)
T1 construct: 14-3-3 gamma, human, amino acids 1-247, cloned by RT-PCR on human muscle cDNA into pMALc2x; also called in vitro expressed 14-3-3; source: recombinant, expression as previously described [58]
T1 sequence (looked up): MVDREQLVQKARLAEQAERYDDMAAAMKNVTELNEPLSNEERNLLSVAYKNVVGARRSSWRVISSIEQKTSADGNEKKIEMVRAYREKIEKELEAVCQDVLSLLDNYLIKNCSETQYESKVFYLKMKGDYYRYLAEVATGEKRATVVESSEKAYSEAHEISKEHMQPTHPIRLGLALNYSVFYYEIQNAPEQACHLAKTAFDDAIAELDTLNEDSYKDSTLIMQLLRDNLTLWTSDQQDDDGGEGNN

T2: GST-CFL2 (amino acids 1-166), non-phosphorylated (Homo sapiens (Human), UniProt Q9Y281)
T2 chain: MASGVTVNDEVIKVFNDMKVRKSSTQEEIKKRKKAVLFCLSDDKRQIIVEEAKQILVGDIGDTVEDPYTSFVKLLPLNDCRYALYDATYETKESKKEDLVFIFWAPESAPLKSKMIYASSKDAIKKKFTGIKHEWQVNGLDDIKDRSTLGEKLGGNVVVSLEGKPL

T3: GST-CFL2 (amino acids 1-55) (Homo sapiens (Human), UniProt Q9Y281)
T3 chain: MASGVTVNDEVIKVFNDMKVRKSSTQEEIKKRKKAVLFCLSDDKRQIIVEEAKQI

B1: GST-Hsp20 (amino acids 1-160), wild type, phosphorylated in vitro by PKA at Ser16 (natural protein, human, UniProt O14558 1-160, looked up)
chain: MEIPVPVQPSWLRRASAPLPGLSAPGRLFDQRFGEGLLEAELAALCPTTLAPYYLRAPSVALPVAQVPTDPGHFSVLLDVKHFSPEEIAVKVVGEHVEVHARHEERPDEHGFVAREFHRRYRLPPGVDPAAVTSALSPEGVLSIQAAPASAQAPPPAAAK
modifications: phosphoserine at 16 (PKA in vitro)
notes: Hsp20 (HspB6), amino acids 1-160, wild type; construct previously reported [16,53,57]; Same construct as m7, after PKA treatment; also called phosphorylated GST-Hsp20; GST-p-Hsp20; source: recombinant, purified on Glutathione Sepharose 4B; phosphorylated in vitro with PKA catalytic subunit (New England Biolabs), 30 °C, 1 h
B2: GST-Hsp20-S16D (natural protein, human, UniProt O14558 1-160, looked up)
chain: B1 chain with S16D
notes: Hsp20 (HspB6), amino acids 1-160, made by PCR mutagenesis on the WT Hsp20 GST-tagged plasmid; Phosphomimetic at Ser16; also called GST-p-Hsp20-S16D (after PKA treatment); source: recombinant, purified (Glutathione Sepharose 4B), eluted; used untreated or PKA-treated
B3: MBP-14-3-3 (amino acids 1-120) (protein)
chain: MVDREQLVQKARLAEQAERYDDMAAAMKNVTELNEPLSNEERNLLSVAYKNVVGARRSSWRVISSIEQKTSADGNEKKIEMVRAYREKIEKELEAVCQDVLSLLDNYLIKNCSETQYESK
B4: MBP-14-3-3 (amino acids 115-247) (domain or fragment, human, UniProt P61981 115-247, looked up)
chain: TQYESKVFYLKMKGDYYRYLAEVATGEKRATVVESSEKAYSEAHEISKEHMQPTHPIRLGLALNYSVFYYEIQNAPEQACHLAKTAFDDAIAELDTLNEDSYKDSTLIMQLLRDNLTLWTSDQQDDDGGEGNN
notes: 14-3-3 gamma, human, amino acids 115-247, in pMALc2x; also called MBP-14-3-3 C-terminal deletion construct; C-terminal fragment of 14-3-3; source: recombinant, expression as previously described [58]
B5: MBP-14-3-3 (amino acids 1-247), full length 14-3-3 gamma (protein)
chain: T1 sequence (looked up)

What was measured:
[1] = molecular target: T1, MBP-14-3-3 (amino acids 1-247), full …; assay: pull-down; same samples as a4: eluted GST-Hsp20 proteins (PKA-treated or not) bound to MBP-14-3-3 on amylose resin, in the presence of myc-CFL2 HEK 293 lysate; blot with phospho-Hsp20 or GST antibody; conditions: both partners purified
[2] = molecular target: T2, GST-CFL2 (amino acids 1-166), …; assay: blot overlay
[3] = molecular target: B1; assay: far-Western, overlay or dot blot; purified GST fusion proteins separated by SDS-PAGE and transferred to nitrocellulose; membranes incubated with MBP-14-3-3 fusion protein (or MBP as control); detection with anti-MBP; conditions: both partners purified
[4] = molecular target: T3, GST-CFL2 (amino acids 1-55); assay: blot overlay

B1: binds [1].

B2: binds [1].

B3: binds [2].

B4: binds [3].

B5: binds [4]; binds [2].
